{
  "source": "paper PMC5982114",
  "about": "(Arteriosclerosis, thrombosis, and vascular biology, 2018)",
  "molecules": {"B1": {"name": "Protein S (natural protein, human, UniProt P07225 42-676, looked up)", "chain": "ANSLLEETKQGNLERECIEELCNKEEAREVFENDPETDYFYPKYLVCLRSFQTGLFTAARQSTNAYPDLRSCVNAIPDQCSPLPCNEDGYMSCKDGKASFTCTCKPGWQGEKCEFDINECKDPSNINGGCSQICDNTPGSYHCSCKNGFVMLSNKKDCKDVDECSLKPSICGTAVCKNIPGDFECECPEGYRYNLKSKSCEDIDECSENMCAQLCVNYPGGYTCYCDGKKGFKLAQDQKSCEVVSVCLPLNLDTKYELLYLAEQFAGVVLYLKFRLPEISRFSAEFDFRTYDSEGVILYAESIDHSAWLLIALRGGKIEVQLKNEHTSKITTGGDVINNGLWNMVSVEELEHSISIKIAKEAVMDINKPGPLFKPENGLLETKVYFAGFPRKVESELIKPINPRLDGCIRSWNLMKQGASGIKEIIQEKQNKHCLVTVEKGSYYPGSGIAQFHIDYNNVSSAEGWHVNVTLNIRPSTGTGVMLALVSGNNTVPFAVSLVDSTSEKSQDILLSVENTVIYRIQALSLCSDQQSHLEFRVNRNNLELSTPLKIETISHEDLQRQLAVLDKAMKAKVATYLGGLPDVPFSATPVNAFYNGCMEVNINGVQLDLDEAISKHNDIRAHSCPSVWKKTKNS"}},
  "key": {"Protein S (human)": {"target": "Protein S (human) (UniProt P07225)", "assay": "fluorescence polarisation"}, "[1]": {"target": "Alexa-Fluor-488-labeled PS (human) (UniProt P07225)", "assay": "flow cytometry on cells"}, "Factor IXa wild type": {"target": "Factor IXa wild type (human, UniProt P00740 47-191; P00740 227-461)", "assay": "cell-based or functional assay"}, "[2]": {"target": "FIXa Padua mutant (R170L) (human) (UniProt P00740)"}, "FIXa K132A/R170A (human)": {"target": "FIXa K132A/R170A (human) (UniProt P00740)"}, "FIXa R165A (human)": {"target": "FIXa R165A (human) (UniProt P00740)"}, "FIXa K126A (human)": {"target": "FIXa K126A (human) (UniProt P00740)"}, "FIXa R150A (human)": {"target": "FIXa R150A (human) (UniProt P00740)"}, "FIXa K132A (human)": {"target": "FIXa K132A (human) (UniProt P00740)"}, "FIXa N129A (human)": {"target": "FIXa N129A (human) (UniProt P00740)"}, "DEGR-FIXa K126A (human)": {"target": "DEGR-FIXa K126A (human) (UniProt P00740)", "assay": "other fluorescence titration"}, "[3]": {"target": "DEGR-FIXa Padua mutant (R170L) (human) (UniProt P00740)", "assay": "other fluorescence titration"}, "DEGR-FIXa K132A (human)": {"target": "DEGR-FIXa K132A (human) (UniProt P00740)", "assay": "other fluorescence titration"}, "[4]": {"target": "DEGR-labelled des-Gla FIXa (human)", "assay": "other fluorescence titration"}, "DEGR-FIXa R150A (human)": {"target": "DEGR-FIXa R150A (human) (UniProt P00740)", "assay": "other fluorescence titration"}, "DEGR-FIXa R165A (human)": {"target": "DEGR-FIXa R165A (human) (UniProt P00740)", "assay": "other fluorescence titration"}, "DEGR-FIXa N129A (human)": {"target": "DEGR-FIXa N129A (human) (UniProt P00740)", "assay": "other fluorescence titration"}},
  "data": [
    {"molecule": "FIXa R165A (from UniProt P00740 47-191) (enzyme)", "values": [
      {"measurement": "IC50", "setting": "Protein S (human)", "result": 68, "unit": "nM"}
    ]},
    {"molecule": "des-Gla FIXa (domain or fragment)", "values": [
      {"measurement": "IC50", "setting": "Protein S (human)", "result": 135, "unit": "nM"}
    ]},
    {"molecule": "fluorescently labeled des-Gla FIXa (domain or fragment)", "values": [
      {"measurement": "median fluorescence intensity", "setting": "[1]", "result": 4000}
    ]},
    {"molecule": "FIXa Padua mutant (R170L) (from UniProt P00740 47-191) (enzyme)", "values": [
      {"measurement": "IC50", "setting": "Protein S (human)", "result": 163, "unit": "nM"}
    ]},
    {"molecule": "FIXa R150A (from UniProt P00740 47-191) (enzyme)", "values": [
      {"measurement": "IC50", "setting": "Protein S (human)", "result": 43, "unit": "nM"}
    ]},
    {"molecule": "zymogen form of FIX (natural protein)", "values": [
      {"measurement": "IC50", "setting": "Protein S (human)", "result": 200, "unit": "nM"}
    ]},
    {"molecule": "FIXa K126A (from UniProt P00740 47-191) (enzyme)", "values": [
      {"measurement": "IC50", "setting": "Protein S (human)", "result": 140, "unit": "nM"}
    ]},
    {"molecule": "FIXa N129A (from UniProt P00740 47-191) (enzyme)", "values": [
      {"measurement": "IC50", "setting": "Protein S (human)", "result": 92, "unit": "nM"}
    ]},
    {"molecule": "FIXa K132A (from UniProt P00740 47-191) (enzyme)", "values": [
      {"measurement": "IC50", "setting": "Protein S (human)", "result": 213, "unit": "nM"}
    ]},
    {"molecule": "B1", "values": [
      {"measurement": "Ki of inhibition by PS of FX activation in the Xase complex (FIXa-FVIIIa)", "setting": "des-Gla FIXa (human)", "result": 120, "unit": "nM"},
      {"measurement": "Ki of inhibition by PS of FX activation by FIXa-phospholipid (S-2765)", "setting": "Factor IXa wild type", "result": 35, "unit": "nM"},
      {"measurement": "Ki of inhibition by PS of FX activation by FIXa-phospholipid (S-2765)", "setting": "[2]", "result": 175, "unit": "nM"},
      {"measurement": "Ki of inhibition by PS of FX activation by FIXa-phospholipid (S-2765)", "setting": "FIXa K132A/R170A (human)", "result": 271, "unit": "nM"},
      {"measurement": "Ki of inhibition by PS of FX activation by FIXa-phospholipid (S-2765)", "setting": "FIXa R165A (human)", "result": 33, "unit": "nM"},
      {"measurement": "Ki of inhibition by PS of FX activation by FIXa-phospholipid (S-2765)", "setting": "FIXa K126A (human)", "result": 100, "unit": "nM"},
      {"measurement": "Ki of inhibition by PS of FX activation by FIXa-phospholipid (S-2765)", "setting": "FIXa R150A (human)", "result": 48, "unit": "nM"},
      {"measurement": "Ki of inhibition by PS of FX activation by FIXa-phospholipid (S-2765)", "setting": "FIXa K132A (human)", "result": 132, "unit": "nM"},
      {"measurement": "Ki of inhibition by PS of FX activation by FIXa-phospholipid (S-2765)", "setting": "FIXa N129A (human)", "result": 72, "unit": "nM"},
      {"measurement": "Kd", "setting": "DEGR-FIXa K126A (human)", "result": 118, "unit": "nM"},
      {"measurement": "Kd", "setting": "[3]", "result": 157, "unit": "nM"},
      {"measurement": "Kd", "setting": "DEGR-FIXa K132A (human)", "result": 148, "unit": "nM"},
      {"measurement": "Kd", "setting": "[4]", "result": 124, "unit": "nM"},
      {"measurement": "Kd", "setting": "DEGR-FIXa R150A (human)", "result": 48, "unit": "nM"},
      {"measurement": "Kd", "setting": "DEGR-FIXa R165A (human)", "result": 54, "unit": "nM"},
      {"measurement": "Kd", "setting": "DEGR-FIXa N129A (human)", "result": 77, "unit": "nM"}
    ]}
  ]
}
